{
  "source": "patent US5573924",
  "key": {"[1]": {"molecular_target": "human CD27 ligand (CD27L), membrane-bound (human)", "assay": "indirect binding assay on MP-1 cells (native CD27L): varying CD27/Fc, then 125I-mouse anti-human IgG; Scatchard analysis, low-affinity component"}, "[2]": {"molecular_target": "human CD27 ligand (CD27L), membrane-bound (human)", "assay": "indirect binding assay on MP-1 cells (native CD27L): varying CD27/Fc, then 125I-mouse anti-human IgG; Scatchard analysis, high-affinity component"}, "[3]": {"molecular_target": "human CD27 ligand (CD27L), membrane-bound (human)", "assay": "indirect binding assay on CV-1/EBNA cells transfected with cloned CD27L: varying CD27/Fc, then 125I-mouse anti-human IgG; Scatchard analysis, low-affinity component"}, "[4]": {"molecular_target": "human CD27 ligand (CD27L), membrane-bound (human)", "assay": "indirect binding assay on CV-1/EBNA cells transfected with cloned CD27L: varying CD27/Fc, then 125I-mouse anti-human IgG; Scatchard analysis, high-affinity component"}},
  "data": [
    {"substance": "CD27/Fc fusion protein (from UniProt P26842)", "values": [
      {"measurement": "Ka", "setting": "[1]", "value": "1.83e+08", "unit": "M⁻¹"},
      {"measurement": "Ka", "setting": "[2]", "value": "1.58e+09", "unit": "M⁻¹"},
      {"measurement": "Ka", "setting": "[3]", "value": "1.2e+08", "unit": "M⁻¹"},
      {"measurement": "Ka", "setting": "[4]", "value": "2.7e+09", "unit": "M⁻¹"}
    ]}
  ]
}
